Values quoted from earlier work in PMC6611495.

Molecular target: protective antigen (PA) (Bacillus anthracis) (UniProt P13423)

For rCMG2 (from UniProt P58335), the Kd is listed as 0.4 nM.
